Data set [1] deals with T1, CRP (cAMP receptor protein) (Escherichia coli ATCC 25922) (UniProt P0ACJ8).
T1 sequence: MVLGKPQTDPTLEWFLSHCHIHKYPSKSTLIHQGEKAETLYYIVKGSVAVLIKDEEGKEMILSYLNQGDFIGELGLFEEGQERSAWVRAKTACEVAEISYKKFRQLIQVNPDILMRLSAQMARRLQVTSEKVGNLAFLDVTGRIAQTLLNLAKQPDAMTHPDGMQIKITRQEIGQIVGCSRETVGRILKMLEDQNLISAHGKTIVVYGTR
The data set is described as follows: competition. The conditions noted are these: EMSA: 20 mM Tris (pH not stated), 10 mM MgCl2, 0.1 mM EDTA, 100 mM KCl, 200 uM cAMP, room temperature 15 min; 5% gel, 0.3x TBE, 150 V, 20 C.

For data set [2], the target named is T1, CRP (cAMP receptor protein) (Escherichia coli ATCC 25922). As to the kind of experiment: EMSA. The note with it: EMSA: 20 mM Tris (pH not stated), 10 mM MgCl2, 0.1 mM EDTA, 100 mM KCl, 200 uM cAMP, room temperature 15 min; 5% gel, 0.3x TBE, 150 V, 20 C.

The results in this text go back to PMC12632272.

On to “CGCCTAAGTTTGCCCGTAATAATTCCCCGTGCAGTACTATTGTTGCGACATAACAACATGAATTACATGGTAATAATAGATGTTTTCCTCTGCTGATTCCTGTAAAGATCATGACTCCATACGACATCATTTTTAATATTATACAGTTCAAAAAATCTACATGTGTCACAAATAATTTTACATTTGATAATGTATAGTTGTCACATGACAAGTTGATTATCATTCTGTGTAGACAAGGAGAACTGTTATGACGGAT (double strand) [P1/2 unlabeled competitor]”, for which the binding entry in data set [1] is reported as “binds”.
Regarding “CGCCTAAGTTTGCCCGTAATAATTCCCCGTGCAGTACTATTGTTGCGACATAACAACATGAATTACATGGTAATAATAGATGTTTTCCTCTGCTGATTCCTGTAAAGATCATGACTCCATACGACATCATTTTTAATATTATACAGTTCAAAAAATCTACATGTGTCACAAATAATTTTACATTTGATAATGTATAGTTGTCACATGACAAGTTGATTATCATTCTGTGTAGACAAGGAGAACTGTTATGACGGAT (double strand) [P1/2 DHAP shunt promoter fragment]”, the binding entry in data set [2] is recorded as “binds”.
